# T1: NXF1 (residues 117–619) (human, UniProt Q9UBU9 117-619)
# T1 sequence: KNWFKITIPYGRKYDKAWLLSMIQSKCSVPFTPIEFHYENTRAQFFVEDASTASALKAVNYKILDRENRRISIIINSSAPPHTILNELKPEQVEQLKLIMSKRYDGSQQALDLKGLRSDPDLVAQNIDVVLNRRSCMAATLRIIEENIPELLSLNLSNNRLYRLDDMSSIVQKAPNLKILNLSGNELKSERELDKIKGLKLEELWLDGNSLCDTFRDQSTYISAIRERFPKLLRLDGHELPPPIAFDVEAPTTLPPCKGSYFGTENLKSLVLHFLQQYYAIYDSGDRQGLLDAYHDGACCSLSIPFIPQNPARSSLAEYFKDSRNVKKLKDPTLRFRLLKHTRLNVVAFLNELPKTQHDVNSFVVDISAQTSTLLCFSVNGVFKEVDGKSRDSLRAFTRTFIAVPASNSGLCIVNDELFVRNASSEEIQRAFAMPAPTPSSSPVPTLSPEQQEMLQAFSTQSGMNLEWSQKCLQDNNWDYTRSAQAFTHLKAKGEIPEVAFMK
# B1: NXT1 (residues 1–140) (natural protein)
# chain: MASVDFKTYVDQACRAAEEFVNVYYTTMDKRRRLLSRLYMGTATLVWNGNAVSGQESLSEFFEMLPSSEFQISVVDCQPVHDEATPSQTTVLVVICGSVKFEGNKQRDFNQNFILTAQASPSNTVWKIASDCFRFQDWAS
# Target: T1, NXF1 (residues 117–619)
# Experiment: crystal structure
binder,measurement,value
B1,binding result,binds

# — article PMC6754785 (Nature microbiology, 2019)
